According to patent WO2011147762A2:

Columns and labels:
[1] = target: ED-B fibronectin antigen protein (recombinant), bound to CNBr activated sepharose 4B (UniProt P02751); assay: ED-B sepharose column, % of total radioactivity bound; Study A; sodium thiosulfate 50 mg/mL; day 7
[2] = target: ED-B fibronectin antigen protein (recombinant), bound to CNBr activated sepharose 4B (UniProt P02751); assay: ED-B sepharose column, % of total radioactivity bound; Study A; maltose 50 mg/mL; day 5
[3] = target: ED-B fibronectin antigen protein (recombinant), bound to CNBr activated sepharose 4B (UniProt P02751); assay: ED-B sepharose column, % of total radioactivity bound; Study A; maltose 25 mg/mL; day 7
[4] = target: ED-B fibronectin antigen protein (recombinant), bound to CNBr activated sepharose 4B (UniProt P02751); assay: ED-B sepharose column, % of total radioactivity bound; Study A; maltose 25 mg/mL; day 3
[5] = target: ED-B fibronectin antigen protein (recombinant), bound to CNBr activated sepharose 4B (UniProt P02751); assay: ED-B sepharose column, % of total radioactivity bound; Study A; methionine 25 mg/mL; day 5
[6] = target: ED-B fibronectin antigen protein (recombinant), bound to CNBr activated sepharose 4B (UniProt P02751); assay: ED-B sepharose column, % of total radioactivity bound; Study A; inositol 50 mg/mL; day 0
[7] = target: ED-B fibronectin antigen protein (recombinant), bound to CNBr activated sepharose 4B (UniProt P02751); assay: ED-B sepharose column, % of total radioactivity bound; Study A; maltose 5 mg/mL; day 3
[8] = target: ED-B fibronectin antigen protein (recombinant), bound to CNBr activated sepharose 4B (UniProt P02751); assay: ED-B sepharose column, % of total radioactivity bound; Study A; inositol 5 mg/mL; day 1
[9] = target: ED-B fibronectin antigen protein (recombinant), bound to CNBr activated sepharose 4B (UniProt P02751); assay: ED-B sepharose column, % of total radioactivity bound; Study A; sodium thiosulfate 5 mg/mL; day 1
[10] = target: ED-B fibronectin antigen protein (recombinant), bound to CNBr activated sepharose 4B (UniProt P02751); assay: ED-B sepharose column, % of total radioactivity bound; Study A; sodium thiosulfate 10 mg/mL; day 5
[11] = target: ED-B fibronectin antigen protein (recombinant), bound to CNBr activated sepharose 4B (UniProt P02751); assay: ED-B sepharose column, % of total radioactivity bound; Study A; sodium thiosulfate 25 mg/mL; day 1
[12] = target: ED-B fibronectin antigen protein (recombinant), bound to CNBr activated sepharose 4B (UniProt P02751); assay: ED-B sepharose column, % of total radioactivity bound; Study B3; human serum albumin 10 mg/mL; day 5
[13] = target: ED-B fibronectin antigen protein (recombinant), bound to CNBr activated sepharose 4B (UniProt P02751); assay: ED-B sepharose column, % of total radioactivity bound; Study B3; human serum albumin 10 mg/mL; day 2
[14] = target: ED-B fibronectin antigen protein (recombinant), bound to CNBr activated sepharose 4B (UniProt P02751); assay: ED-B sepharose column, % of total radioactivity bound; Study A; inositol 50 mg/mL; day 7
[15] = target: ED-B fibronectin antigen protein (recombinant), bound to CNBr activated sepharose 4B (UniProt P02751); assay: ED-B sepharose column, % of total radioactivity bound; Study B3; no-excipient control (PBS); day 3
[16] = target: ED-B fibronectin antigen protein (recombinant), bound to CNBr activated sepharose 4B (UniProt P02751); assay: ED-B sepharose column, % of total radioactivity bound; Study B3; ascorbic acid 25 mg/mL; day 5
[17] = target: ED-B fibronectin antigen protein (recombinant), bound to CNBr activated sepharose 4B (UniProt P02751); assay: ED-B sepharose column, % of total radioactivity bound; Study A; sodium thiosulfate 25 mg/mL; day 5
[18] = target: ED-B fibronectin antigen protein (recombinant), bound to CNBr activated sepharose 4B (UniProt P02751); assay: ED-B sepharose column, % of total radioactivity bound; Study A; methionine 10 mg/mL; day 1
[19] = target: ED-B fibronectin antigen protein (recombinant), bound to CNBr activated sepharose 4B (UniProt P02751); assay: ED-B sepharose column, % of total radioactivity bound; Study A; maltose 10 mg/mL; day 3
[20] = target: ED-B fibronectin antigen protein (recombinant), bound to CNBr activated sepharose 4B (UniProt P02751); assay: ED-B sepharose column, % of total radioactivity bound; Study A; trolox 5 mg/mL; day 5
[21] = target: ED-B fibronectin antigen protein (recombinant), bound to CNBr activated sepharose 4B (UniProt P02751); assay: ED-B sepharose column, % of total radioactivity bound; Study A; trolox 5 mg/mL; day 7
[22] = target: ED-B fibronectin antigen protein (recombinant), bound to CNBr activated sepharose 4B (UniProt P02751); assay: ED-B sepharose column, % of total radioactivity bound; Study B3; no-excipient control (PBS); day 0
[23] = target: ED-B fibronectin antigen protein (recombinant), bound to CNBr activated sepharose 4B (UniProt P02751); assay: ED-B sepharose column, % of total radioactivity bound; Study A; methionine 25 mg/mL; day 0
[24] = target: ED-B fibronectin antigen protein (recombinant), bound to CNBr activated sepharose 4B (UniProt P02751); assay: ED-B sepharose column, % of total radioactivity bound; Study B3; inositol 10 mg/mL; day 3
[25] = target: ED-B fibronectin antigen protein (recombinant), bound to CNBr activated sepharose 4B (UniProt P02751); assay: ED-B sepharose column, % of total radioactivity bound; Study B3; inositol 10 mg/mL; day 1
[26] = target: ED-B fibronectin antigen protein (recombinant), bound to CNBr activated sepharose 4B (UniProt P02751); assay: ED-B sepharose column, % of total radioactivity bound; Study A; no-excipient control (saline); day 3
[27] = target: ED-B fibronectin antigen protein (recombinant), bound to CNBr activated sepharose 4B (UniProt P02751); assay: ED-B sepharose column, % of total radioactivity bound; Study A; methionine 5 mg/mL; day 7
[28] = target: ED-B fibronectin antigen protein (recombinant), bound to CNBr activated sepharose 4B (UniProt P02751); assay: ED-B sepharose column, % of total radioactivity bound; Study A; inositol 25 mg/mL; day 3

UniProt P02751, sequence (P02751 1266-1356 limits assumed): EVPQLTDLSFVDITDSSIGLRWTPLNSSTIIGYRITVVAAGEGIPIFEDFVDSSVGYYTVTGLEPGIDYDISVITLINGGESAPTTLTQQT
131I L19-SIP (radioiodinated L19 SIP homodimer), sequence (chain): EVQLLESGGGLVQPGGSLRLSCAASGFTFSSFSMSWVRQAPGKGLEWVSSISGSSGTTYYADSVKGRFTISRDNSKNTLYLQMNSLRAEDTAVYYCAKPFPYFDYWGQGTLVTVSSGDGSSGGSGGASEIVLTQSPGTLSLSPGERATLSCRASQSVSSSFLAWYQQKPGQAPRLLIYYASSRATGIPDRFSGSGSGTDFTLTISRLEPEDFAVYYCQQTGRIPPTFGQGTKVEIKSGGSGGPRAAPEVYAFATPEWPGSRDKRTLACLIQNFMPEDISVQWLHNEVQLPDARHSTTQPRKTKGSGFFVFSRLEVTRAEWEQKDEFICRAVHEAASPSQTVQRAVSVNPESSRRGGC
131I L19-SIP (radioiodinated L19 SIP homodimer), sequence (chain): as above

Immunoreactivity (%) [1]: 88.2% | Immunoreactivity (%) [2]: 55.6% | Immunoreactivity (%) [3]: 53.6% | Immunoreactivity (%) [4]: 66% | Immunoreactivity (%) [5]: 48.6% | Immunoreactivity (%) [6]: 92.3% | Immunoreactivity (%) [7]: 66.3% | Immunoreactivity (%) [8]: 87.1% | Immunoreactivity (%) [9]: 94.4% | Immunoreactivity (%) [10]: 81.3% | Immunoreactivity (%) [11]: 95% | Immunoreactivity (IR) (%) [12]: 53% | Immunoreactivity (IR) (%) [13]: 59.9% | Immunoreactivity (%) [14]: 61.9% | Immunoreactivity (IR) (%) [15]: 68.3% | Immunoreactivity (IR) (%) [16]: 64.7% | Immunoreactivity (%) [17]: 87.9% | Immunoreactivity (%) [18]: 88.1% | Immunoreactivity (%) [19]: 65.2% | Immunoreactivity (%) [20]: 65.8% | Immunoreactivity (%) [21]: 52.9% | Immunoreactivity (IR) (%) [22]: 74.6% | Immunoreactivity (%) [23]: 97.2% | Immunoreactivity (IR) (%) [24]: 74.8% | Immunoreactivity (IR) (%) [25]: 77.1% | Immunoreactivity (%) [26]: 59.8% | Immunoreactivity (%) [27]: 61% | Immunoreactivity (%) [28]: 68.5%
Substance: 131I L19-SIP (radioiodinated L19 SIP homodimer)
